# Assay results published in article PMC3444823.
# pKd: −log10 of the molar value.
# Legend:
# [1] = molecular target: truncated HIV-1 gp120MS (residues 83-492, intact variable loops) (HIV-1 (clade A isolate)); assay: SEC
# [2] = molecular target: truncated HIV-1 gp120SC (residues 83-492, intact variable loops) (HIV-1 (clade B isolate)); assay: SEC
# [3] = molecular target: single-chain fusion protein of CD4i antibody domain m36.4 with gp120MS (human | HIV-1 (clade A isolate)); assay: SPR
# [4] = molecular target: stabilized gp120SC with T257S+S375W mutations (HIV-1 (clade B isolate)); assay: SPR
# [5] = molecular target: single-chain fusion protein of CD4i scFv m9 with gp120SC (HIV-1 (clade B isolate)); assay: SPR
# [6] = molecular target: truncated HIV-1 gp120MS (residues 83-492, intact variable loops) (HIV-1 (clade A isolate)); assay: SPR
# [7] = molecular target: single-chain fusion protein of CD4i antibody domain m36.4 with gp120SC (human | HIV-1 (clade B isolate)); assay: SPR
# [8] = molecular target: single-chain fusion protein of CD4i antibody domain m36.4 with gp140SC (human | HIV-1 (clade B isolate)); assay: SPR
# [9] = molecular target: truncated HIV-1 gp120SC (residues 83-492, intact variable loops) (HIV-1 (clade B isolate)); assay: SPR
substance,measurement,setting,value
"truncated HIV-1 gp120MS (residues 83-492, intact variable loops) (domain or fragment)",stoichiometry N,[1],2
"truncated HIV-1 gp120SC (residues 83-492, intact variable loops) (domain or fragment)",stoichiometry N,[2],2
two-domain human soluble CD4 (domain or fragment),pKd,[3],9.82
same,pKd,[4],7.23
same,pKd,[5],8.74
same,pKd,[6],9.68
same,pKd,[7],9.14
same,pKd,[8],8.72
same,pKd,[9],6.98
